Test results reported in doi:10.1101/258194 (bioRxiv, 2018).

T1: Zip2^499-704 (XPF-like region), recombinant, co-expressed with His6-Spo16 (S. cerevisiae, UniProt P53061 499-704)
T1 sequence: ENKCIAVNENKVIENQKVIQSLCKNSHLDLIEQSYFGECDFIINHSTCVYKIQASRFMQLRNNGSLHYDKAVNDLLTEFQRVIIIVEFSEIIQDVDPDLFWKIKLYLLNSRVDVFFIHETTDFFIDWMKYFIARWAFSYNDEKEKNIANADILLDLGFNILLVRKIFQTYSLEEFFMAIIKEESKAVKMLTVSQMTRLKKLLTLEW

T2: Zip2^499-704, surface-lysine methylated (Form 1 crystals) (S. cerevisiae, UniProt P53061 499-704)
T2 sequence: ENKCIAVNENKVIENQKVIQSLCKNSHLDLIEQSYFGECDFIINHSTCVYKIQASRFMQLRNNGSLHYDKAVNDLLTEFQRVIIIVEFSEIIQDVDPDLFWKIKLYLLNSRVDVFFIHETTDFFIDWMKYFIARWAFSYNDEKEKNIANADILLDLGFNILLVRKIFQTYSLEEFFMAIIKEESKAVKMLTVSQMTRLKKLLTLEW


How the values were obtained:
[1] = target: T1, Zip2^499-704 (XPF-like region), …; test: SEC-MALS
[2] = target: T2, Zip2^499-704, surface-lysine methylated …; test: crystal structure

Binder	stoichiometry N [1]	binding result [2]
His6-Spo16 (full-length Spo16 with TEV-cleavable N-terminal His6-tag), recombinant (natural protein) SEFFWDVQKIQEISNVEEHSVVKCVTVNTSRLISQLNEELQDEESGVNFIVTQLQLLINNVYEKIQKSPGVPAHRSLMINLNFTRLKFSIAYWDILLERSLDLINGPSKTGARYFITEVTPVDRSRYVENNQYFLAFKANQRLTRNSVDMDEFIDFEILIKQIIFDLFKKNGIPDQDFEAILSRFHNLESLVVAFNE	1	–
His6-Spo16, surface-lysine methylated (Form 1 crystals) (natural protein, surface lysines dimethylated (positions not listed)) SEFFWDVQKIQEISNVEEHSVVKCVTVNTSRLISQLNEELQDEESGVNFIVTQLQLLINNVYEKIQKSPGVPAHRSLMINLNFTRLKFSIAYWDILLERSLDLINGPSKTGARYFITEVTPVDRSRYVENNQYFLAFKANQRLTRNSVDMDEFIDFEILIKQIIFDLFKKNGIPDQDFEAILSRFHNLESLVVAFNE	–	binds
